Data reported in publication PMC4741457, “Structural basis for the indispensable role of a unique zinc finger motif in LNX2 ubiquitination” (Oncotarget, 2015).
Numbering of substitutions follows the chain as printed.

B1: Zn-RING-Zn domain of LNX2 (aa 20-147) (domain or fragment, human, UniProt Q8N448 20-147, looked up)
chain: NPLCFECGQQHWTRENHLYNYQNEVDDDLVCHICLQPLLQPLDTPCGHTFCYKCLRNFLQEKDFCPLDRKRLHFKLCKKSSILVHKLLDKLLVLCPFSSVCKDVMQRCDLEAHLKNRCPGASHRRVAL
notes: Genes were cloned into pGEX6P-1 or pMAL; The last six residues are not in the crystallographic model; Four zinc ions per monomer; source: E. coli BL21 (DE3), purified (glutathione or amylose sepharose, tag cleaved, Superdex size exclusion)
B2: Zn-RING-Zn domain of LNX2 (aa 20-147) Asp45Ala (domain or fragment, human, UniProt Q8N448 20-147, looked up)
chain: B1 chain with D26A
notes: PDB 5DIN is the wild-type parent of the same limits; also called Asp45Ala mutant; source: E. coli BL21 (DE3), purified
B3: full-length LNX2 (enzyme, human, UniProt Q8N448 1-690, looked up)
chain: MGTTSDEMVSVEQTSSSSLNPLCFECGQQHWTRENHLYNYQNEVDDDLVCHICLQPLLQPLDTPCGHTFCYKCLRNFLQEKDFCPLDRKRLHFKLCKKSSILVHKLLDKLLVLCPFSSVCKDVMQRCDLEAHLKNRCPGASHRRVALERRKTSRTQAEIENENGPTLLDPAGTLSPEADCLGTGAVPVERHLTSASLSTWSEEPGLDNPAFEESAGADTTQQPLSLPEGEITTIEIHRSNPYIQLGISIVGGNETPLINIVIQEVYRDGVIARDGRLLAGDQILQVNNYNISNVSHNYARAVLSQPCNTLHLTVLRERRFGNRAHNHSDSNSPREEIFQVALHKRDSGEQLGIKLVRRTDEPGVFILDLLEGGLAAQDGRLSSNDRVLAINGHDLKYGTPELAAQIIQASGERVNLTIARPGKPQPGNTIREAGNHSSSSQHHTPPPYYSRPSSHKDLTQCVTCQEKHITVKKEPHESLGMTVAGGRGSKSGELPIFVTSVPPHGCLARDGRIKRGDVLLNINGIDLTNLSHSEAVAMLKASAASPAVALKALEVQIVEEATQNAEEQPSTFSENEYDASWSPSWVMWLGLPSTLHSCHDIVLRRSYLGSWGFSIVGGYEENHTNQPFFIKTIVLGTPAYYDGRLKCGDMIVAVNGLSTVGMSHSALVPMLKEQRNKVTLTVICWPGSLV
notes: Ligand of Numb protein-X 2 (LNX2), human, full length (last residue Val690); The methods say in general that MBP-tagged proteins were cleaved with TEV protease before size exclusion; MBP-tagged FL-LNX2 was used uncleaved in some ubiquitination assays; also called FL-LNX2; Ligand of Numb Protein-X 2; source: E. coli BL21 (DE3), purified (amylose sepharose, size exclusion)
B4: full-length LNX2 triple mutant (Lys109Ala, Ser688Asp, Val690Glu) (enzyme, human, UniProt Q8N448 1-690, looked up)
chain: B3 chain with K109A, S688D, V690E
notes: LNX2, human, full length, with Lys109Ala, Ser688Asp and Val690Glu; also called triple mutant of human FL-LNX2; source: E. coli BL21 (DE3), purified

Target: the molecule itself
Assay: SEC; calibrated gel-filtration column (Superdex 75 or Superdex 200), each protein run alone

Protein	stoichiometry N	binding result
B1	2	
B2	2	
B3	2	
B4		binds
